Test results published in US20240383967A1 (UNIVERSITY OF SOUTHERN CALIFORNIA, published 2024).

Columns and labels:
[1] = biological target: T1, Recombinant human CTSL (human, UniProt P07711 114-333); assay: fluorogenic protease activity assay (Z-FR-AMC), initial rates fitted to the competitive inhibition equation
T1 construct: Bought; also called cathepsin L
Method: (§1) The inhibition activity of Her-HC-CTSSpp IgG was then examined with human CTSS through fluorescence-based activity assays using a fluorogenic peptide substrate Z-VVR-AMC (FIG. 5). […] CTSS and CTSL belong to the same subfamily of cathepsins. And the propeptide of proCTSS is a known inhibitor of CTSL (28,29). Therefore, the activity of Her-HC-CTSSpp IgG in inhibiting human CTSL was evaluated with a fluorogenic peptide substrate Z-FR-AMC (FIG. 5). […] To further study inhibition specificity of Her-HC-CTSSpp IgG, fluorescence-based activity assays for human CTSB and bovine trypsin were carried out in the absence or presence of Her-HC-CTSSpp IgG.
(§2) Next, inhibition potency and specificity of the designed Syn-LC-CTSSpp Fab antibody were analyzed by fluorescence-based proteolytic activity assays. […] Likewise, Syn-LC-CTSSpp Fab functions as a weaker antibody inhibitor against human CTSL.

[2] = biological target: T2, Recombinant human CTSS (human, UniProt P25774 115-331); assay: fluorogenic protease activity assay (Z-VVR-AMC), initial rates fitted to the competitive inhibition equation
T2 construct: Bought from R&D Systems (1183-CY-010); also called cathepsin S
Method: as §1, §2

[3] = biological target: T1, Recombinant human CTSL; assay: ratio of Ki values from fluorogenic protease activity assays

T1 sequence (P07711 114-333): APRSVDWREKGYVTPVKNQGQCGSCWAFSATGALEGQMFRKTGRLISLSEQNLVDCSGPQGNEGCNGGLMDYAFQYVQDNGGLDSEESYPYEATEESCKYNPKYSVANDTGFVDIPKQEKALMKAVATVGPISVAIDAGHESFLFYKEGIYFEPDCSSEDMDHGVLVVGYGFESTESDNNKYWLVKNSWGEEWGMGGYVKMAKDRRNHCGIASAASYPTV

| Binder | Ki [1] [nM] | Ki [2] [nM] | fold decrease of potency for CTSL in comparison to CTSS [3] [fold] |
| --- | --- | --- | --- |
| Her-HC-CTSSpp IgG (antibody, Full-length IgG expressed in Expi293F cells and purified on protein G. The propeptide of proCTSS is grafted into CDR3H of the anti-HER2 antibody Herceptin) heavy: EVQLVESGGGLVQPGGSLRLSCAASGFNIKDTYIHWVRQAPGKGLEWVARIYPTNGYTRYADSVKGRFTISADTSKNTAYLQMNSLRAEDTAVYYCSRGGSGAKLAALKAKLAALKCGGGGSIEGRQLHKDPTLDHHWHLWKKTYGKQYKEKNEEAVRRLIWEKNLKFVMLHNLEHSMGMHSYDLGMNHLGDMTSEEVMSLMSSLRVPSQWQRNITYKSNPNRGGGGSCELAALEAELAALEAGGSGDYWGQGTLVTVSSASTKGPSVFPLAPSSKSTSGGTAALGCLVKDYFPEPVTVSWNSGALTSGVHTFPAVLQSSGLYSLSSVVTVPSSSLGTQTYICNVNHKPSNTKVDKKVEPKSCDKTHTCPPCPAPPVAGPSVFLFPPKPKDTLMISRTPEVTCVVVDVSHEDPEVKFNWYVDGVEVHNAKTKPREEQYNSTYRVVSVLTVLHQDWLNGKEYKCKVSNKGLPSSIEKTISKAKGQPREPQVYTLPPSRDELTKNQVSLTCLVKGFYPSDIAVEWESNGQPENNYKTTPPVLDSDGSFFLYSKLTVDKSRWQQGNVFSCSVMHEALHNHYTQKSLSLSPGK light: not shown | 49.3 | 6.03 |  |
| Syn-LC-CTSSpp Fab (Fab) light: QLHKDPTLDHHWHLWKKTYGKQYKEKNEEAVRRLIWEKNLKFVMLHNLEHSMGMHSYDLGMNHLGDMTSEEVMSLMSSLRVPSQWQRNITYKSNPNRGGGGSDIQMTQSPSTLSASVGDRVTITCKCQLSVGYMHWYQQKPGKAPKLLIYDTSKLASGVPSRFSGSGSGTEFTLTISSLQPDDFATYYCFQGSGYPFTFGGGTKLEIKRTVAAPSVFIFPPSDEQLKSGTASVVCLLNNFYPREAKVQWKVDNALQSGNSQESVTEQDSKDSTYSLSSTLTLSKADYEKHKVYACEVTHQGLSSPVTKSFNRGEC heavy: QVTLRESGPALVKPTQTLTLTCTFSGFSLSTSGMSVGWIRQPPGKALEWLADIWWDDKKDYNPSLKSRLTISKDTSKNQVVLKVTNMDPADTATYYCARSMITNWYFDVWGAGTTVTVSSASTKGPSVFPLAPSSKSTSGGTAALGCLVKDYFPEPVTVSWNSGALTSGVHTFPAVLQSSGLYSLSSVVTVPSSSLGTQTYICNVNHKPSNTKVDKKVEPKSCDKTHT | 24.5 | 2.12 | ~12 |
